Consider one substance from article PMC8399745, “Nanostructured Lipid Carriers (NLCs) for Oral Peptide Drug Delivery: About the Impact of Surface Decoration” (Pharmaceutics, 2021).

The nature of the data set: Log P octanol/water of INS and INS-SDS complexes. The class given is physicochemical. The settings on record: shake-flask octanol/water (1:1), 1 mg in 1 mL, 37 °C, 500 rpm, 12 h, centrifugation, INS quantified in each phase by HPLC (214 nm); means, n = 3. As to the method:
Log Poctanol/water of INS and INS-SDS complexes was determined using a previously described method with minor modification. Briefly, 1 mg of each product was added to 1 mL of octanol/water (1:1) (Sigma-Aldrich Chemie GmbH, Vienna, Austria). The mixtures were incubated at 37 °C while stirring at 500 rpm for 12 h. Thereafter, samples were centrifuged at 13,400 rpm for 10 min. Aliquots of 100 μL were withdrawn from each phase (octanol and water) and analyzed via HPLC after dilution with 300 μL of methanol (Sigma-Aldrich Chemie GmbH, Vienna, Austria) containing 0.1% (v/v) TFA. Log P was calculated according to the following equation: Log P=Log(Concentration of INS in octanol phase/Concentration of INS in water phase)

Regarding Human recombinant insulin, the “log Poctanol/water” value was −1.8.
